# Experimental data taken from the supplement of paper PMC10065799, “High-throughput profiling of sequence recognition by tyrosine kinases and SH2 domains using bacterial peptide display” (eLife, 2023).
# Key:
# [1] = target: c-Src SH2; experiment: SH2 binding enrichment of the phosphorylated peptide, bacterial display (enrichment ratio); higher = better substrate or ligand; peptides without Tyr show the background
# [2] = target: Grb2 SH2 (UniProt P62993); experiment: as above
# [3] = target: SHP2-C SH2; experiment: as above
# [4] = test system: c-Abl (mouse); experiment: phosphorylation enrichment, bacterial display (enrichment ratio); higher = better substrate or ligand; peptides without Tyr show the background
# [5] = target: Fes (UniProt P07332); experiment: as above
# [6] = test system: c-Src; experiment: as above
# [7] = test system: Fer (mouse); experiment: as above
# [8] = test system: AncSZ; experiment: as above
# [9] = target: Fyn (UniProt P06241); experiment: as above
# [10] = target: EPHB1 (UniProt P54762); experiment: as above
# [11] = target: EPHB2 (UniProt P29323); experiment: as above
# [12] = target: FGFR3 (UniProt P22607); experiment: as above
# [13] = target: Jak2 (UniProt O60674); experiment: as above
# [14] = target: FGFR1 (UniProt P11362); experiment: as above
# [15] = target: MERTK (UniProt Q12866); experiment: as above
# [16] = target: Hck (UniProt P08631); experiment: as above
# 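For SH2 binding enrichment of the phosphorylated peptide, bacterial display in this document: peptide library displayed on the E. coli surface as eCPX fusions, selected cells deep-sequenced, score is each peptide's frequency after selection divided by its frequency in the input.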
# 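For phosphorylation enrichment, bacterial display in this document: 11-residue human phosphosite peptides and single-mutation variants displayed on the E. coli surface, counted by deep sequencing, each peptide's frequency after selection divided by its frequency in the unselected input library; frequency after pTyr selection over input frequency; kinase dosed for 20-30% of maximal phosphorylation in three min.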
# Fyn, sequence (P06241 whole entry, looked up): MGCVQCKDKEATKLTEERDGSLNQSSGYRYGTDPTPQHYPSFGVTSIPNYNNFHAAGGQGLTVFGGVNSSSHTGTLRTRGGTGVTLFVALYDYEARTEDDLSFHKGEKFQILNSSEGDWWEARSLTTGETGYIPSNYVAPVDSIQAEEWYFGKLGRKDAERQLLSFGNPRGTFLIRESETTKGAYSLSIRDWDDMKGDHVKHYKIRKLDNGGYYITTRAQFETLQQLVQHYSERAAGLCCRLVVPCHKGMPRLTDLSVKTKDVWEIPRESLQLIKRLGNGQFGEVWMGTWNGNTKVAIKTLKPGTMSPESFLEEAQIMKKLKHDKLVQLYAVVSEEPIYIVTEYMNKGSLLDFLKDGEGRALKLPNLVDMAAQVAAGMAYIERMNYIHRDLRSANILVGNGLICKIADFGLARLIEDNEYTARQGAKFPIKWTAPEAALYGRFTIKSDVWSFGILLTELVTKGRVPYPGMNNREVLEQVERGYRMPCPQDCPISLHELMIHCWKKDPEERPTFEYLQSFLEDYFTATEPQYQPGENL
# Hck, sequence (P08631 whole entry, looked up, the tested form may be a part): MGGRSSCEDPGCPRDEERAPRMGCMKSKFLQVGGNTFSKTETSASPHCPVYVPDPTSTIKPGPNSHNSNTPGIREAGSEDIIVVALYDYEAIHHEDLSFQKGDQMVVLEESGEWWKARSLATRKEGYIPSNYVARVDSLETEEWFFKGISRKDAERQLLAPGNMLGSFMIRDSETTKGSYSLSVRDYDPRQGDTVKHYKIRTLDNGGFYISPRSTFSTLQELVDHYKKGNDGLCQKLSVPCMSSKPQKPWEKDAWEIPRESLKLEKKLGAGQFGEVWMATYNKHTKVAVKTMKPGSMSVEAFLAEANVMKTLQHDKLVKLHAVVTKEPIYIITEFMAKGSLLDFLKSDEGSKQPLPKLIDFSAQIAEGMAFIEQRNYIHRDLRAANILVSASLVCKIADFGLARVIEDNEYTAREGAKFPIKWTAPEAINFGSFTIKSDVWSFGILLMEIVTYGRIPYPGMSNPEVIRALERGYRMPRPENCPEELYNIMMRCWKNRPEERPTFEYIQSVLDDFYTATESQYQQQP
# MERTK, sequence (Q12866 whole entry, looked up): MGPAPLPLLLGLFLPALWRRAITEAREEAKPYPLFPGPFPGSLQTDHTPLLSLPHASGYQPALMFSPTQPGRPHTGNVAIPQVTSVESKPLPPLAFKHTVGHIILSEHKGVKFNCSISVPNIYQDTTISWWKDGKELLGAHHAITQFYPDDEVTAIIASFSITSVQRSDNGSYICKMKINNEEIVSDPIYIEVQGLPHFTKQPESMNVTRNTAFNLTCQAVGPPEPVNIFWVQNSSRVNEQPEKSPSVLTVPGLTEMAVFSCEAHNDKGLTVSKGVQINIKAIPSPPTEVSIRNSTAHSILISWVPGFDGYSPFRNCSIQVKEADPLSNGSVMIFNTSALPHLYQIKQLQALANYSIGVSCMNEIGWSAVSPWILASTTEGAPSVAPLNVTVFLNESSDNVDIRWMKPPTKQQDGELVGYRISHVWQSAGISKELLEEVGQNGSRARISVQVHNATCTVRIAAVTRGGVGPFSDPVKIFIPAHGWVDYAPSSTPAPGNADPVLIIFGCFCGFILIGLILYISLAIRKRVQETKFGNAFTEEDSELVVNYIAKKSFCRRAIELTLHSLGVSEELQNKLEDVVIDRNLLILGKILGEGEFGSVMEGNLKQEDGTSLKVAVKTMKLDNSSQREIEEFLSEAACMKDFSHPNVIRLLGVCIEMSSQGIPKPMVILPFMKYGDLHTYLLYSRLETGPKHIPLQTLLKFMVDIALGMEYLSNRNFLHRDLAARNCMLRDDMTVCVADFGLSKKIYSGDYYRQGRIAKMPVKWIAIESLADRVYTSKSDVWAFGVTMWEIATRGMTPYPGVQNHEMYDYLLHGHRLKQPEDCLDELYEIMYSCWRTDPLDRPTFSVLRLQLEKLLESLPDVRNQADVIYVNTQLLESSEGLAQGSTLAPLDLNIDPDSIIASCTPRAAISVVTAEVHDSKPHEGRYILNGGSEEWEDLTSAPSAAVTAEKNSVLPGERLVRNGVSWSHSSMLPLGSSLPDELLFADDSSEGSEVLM
# Jak2, sequence (O60674 whole entry, looked up): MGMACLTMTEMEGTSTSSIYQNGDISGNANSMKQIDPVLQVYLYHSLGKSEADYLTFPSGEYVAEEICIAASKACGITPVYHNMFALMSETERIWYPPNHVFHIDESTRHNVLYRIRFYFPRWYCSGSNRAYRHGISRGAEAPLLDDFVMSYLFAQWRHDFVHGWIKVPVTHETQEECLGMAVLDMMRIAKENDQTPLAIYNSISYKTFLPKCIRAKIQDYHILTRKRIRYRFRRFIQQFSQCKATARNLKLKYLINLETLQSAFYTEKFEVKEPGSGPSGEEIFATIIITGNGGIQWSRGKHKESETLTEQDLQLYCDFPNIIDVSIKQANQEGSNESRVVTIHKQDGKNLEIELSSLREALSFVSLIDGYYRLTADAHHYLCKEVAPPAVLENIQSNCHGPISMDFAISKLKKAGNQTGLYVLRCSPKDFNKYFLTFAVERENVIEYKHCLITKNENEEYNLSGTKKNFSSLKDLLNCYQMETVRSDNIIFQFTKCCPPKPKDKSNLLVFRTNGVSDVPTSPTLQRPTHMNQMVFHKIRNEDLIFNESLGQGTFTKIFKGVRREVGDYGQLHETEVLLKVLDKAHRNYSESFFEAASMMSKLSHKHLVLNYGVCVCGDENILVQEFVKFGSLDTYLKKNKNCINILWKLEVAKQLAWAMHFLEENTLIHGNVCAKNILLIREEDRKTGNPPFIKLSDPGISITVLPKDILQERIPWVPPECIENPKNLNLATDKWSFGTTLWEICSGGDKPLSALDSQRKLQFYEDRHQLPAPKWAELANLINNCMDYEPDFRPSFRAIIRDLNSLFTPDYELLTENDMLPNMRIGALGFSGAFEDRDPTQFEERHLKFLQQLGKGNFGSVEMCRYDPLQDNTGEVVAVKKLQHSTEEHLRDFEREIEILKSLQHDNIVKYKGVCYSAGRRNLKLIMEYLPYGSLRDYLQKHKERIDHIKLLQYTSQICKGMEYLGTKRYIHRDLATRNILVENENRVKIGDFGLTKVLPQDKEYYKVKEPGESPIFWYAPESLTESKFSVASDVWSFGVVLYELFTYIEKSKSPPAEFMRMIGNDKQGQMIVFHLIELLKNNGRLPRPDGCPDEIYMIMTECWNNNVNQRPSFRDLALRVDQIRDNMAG
# FGFR3, sequence (P22607 whole entry, looked up): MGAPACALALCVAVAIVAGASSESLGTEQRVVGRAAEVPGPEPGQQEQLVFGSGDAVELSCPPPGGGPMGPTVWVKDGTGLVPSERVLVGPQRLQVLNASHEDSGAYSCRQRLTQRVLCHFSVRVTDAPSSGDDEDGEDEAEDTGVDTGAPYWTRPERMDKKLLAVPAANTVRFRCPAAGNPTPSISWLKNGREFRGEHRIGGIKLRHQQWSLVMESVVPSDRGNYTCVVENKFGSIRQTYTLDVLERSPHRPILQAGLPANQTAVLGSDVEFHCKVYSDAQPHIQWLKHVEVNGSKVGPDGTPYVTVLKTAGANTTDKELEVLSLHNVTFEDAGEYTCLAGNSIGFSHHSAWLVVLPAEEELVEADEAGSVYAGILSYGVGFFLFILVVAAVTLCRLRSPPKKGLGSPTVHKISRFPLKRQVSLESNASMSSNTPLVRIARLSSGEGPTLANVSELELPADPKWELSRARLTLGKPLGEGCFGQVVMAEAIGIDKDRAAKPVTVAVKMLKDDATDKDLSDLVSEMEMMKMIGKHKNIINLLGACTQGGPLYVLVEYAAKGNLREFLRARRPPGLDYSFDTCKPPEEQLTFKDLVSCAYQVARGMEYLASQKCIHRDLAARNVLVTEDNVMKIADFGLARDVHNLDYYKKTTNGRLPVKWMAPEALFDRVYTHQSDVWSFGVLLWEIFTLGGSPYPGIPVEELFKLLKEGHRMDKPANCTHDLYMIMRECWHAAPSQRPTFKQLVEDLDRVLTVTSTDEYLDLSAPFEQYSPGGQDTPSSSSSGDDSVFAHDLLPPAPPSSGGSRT
# EPHB2, sequence (P29323 whole entry, looked up): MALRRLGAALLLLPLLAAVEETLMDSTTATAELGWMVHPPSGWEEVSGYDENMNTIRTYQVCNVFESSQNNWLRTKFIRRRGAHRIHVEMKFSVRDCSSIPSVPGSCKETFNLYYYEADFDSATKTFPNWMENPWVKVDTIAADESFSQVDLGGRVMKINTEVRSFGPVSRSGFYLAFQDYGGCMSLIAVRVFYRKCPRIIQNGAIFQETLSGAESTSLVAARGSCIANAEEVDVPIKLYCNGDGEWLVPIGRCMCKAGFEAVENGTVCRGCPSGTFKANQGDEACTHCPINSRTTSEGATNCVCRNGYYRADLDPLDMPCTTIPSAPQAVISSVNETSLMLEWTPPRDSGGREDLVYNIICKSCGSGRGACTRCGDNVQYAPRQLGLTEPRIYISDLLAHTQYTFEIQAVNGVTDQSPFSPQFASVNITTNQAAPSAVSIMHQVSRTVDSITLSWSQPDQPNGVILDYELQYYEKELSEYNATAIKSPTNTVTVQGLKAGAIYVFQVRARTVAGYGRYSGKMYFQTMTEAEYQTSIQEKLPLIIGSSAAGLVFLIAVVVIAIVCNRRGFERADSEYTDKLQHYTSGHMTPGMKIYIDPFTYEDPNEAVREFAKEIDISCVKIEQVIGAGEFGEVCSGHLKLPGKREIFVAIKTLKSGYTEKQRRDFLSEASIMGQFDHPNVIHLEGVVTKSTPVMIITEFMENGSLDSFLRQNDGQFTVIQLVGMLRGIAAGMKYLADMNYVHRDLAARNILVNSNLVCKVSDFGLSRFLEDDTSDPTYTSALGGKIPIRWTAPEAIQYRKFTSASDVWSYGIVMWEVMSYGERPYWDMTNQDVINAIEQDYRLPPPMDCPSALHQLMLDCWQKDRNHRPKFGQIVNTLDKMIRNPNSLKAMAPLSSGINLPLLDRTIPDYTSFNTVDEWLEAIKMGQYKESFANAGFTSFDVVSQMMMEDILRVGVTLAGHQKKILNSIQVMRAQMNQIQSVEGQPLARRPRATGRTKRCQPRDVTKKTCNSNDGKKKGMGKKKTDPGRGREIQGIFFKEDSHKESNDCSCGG
Sequence,SH2 binding enrichment [1],SH2 binding enrichment [2],SH2 binding enrichment [3],phosphorylation enrichment [4],phosphorylation enrichment [5],phosphorylation enrichment [6],phosphorylation enrichment [7],phosphorylation enrichment [8],phosphorylation enrichment [9],phosphorylation enrichment [10],phosphorylation enrichment [11],phosphorylation enrichment [12],phosphorylation enrichment [13],phosphorylation enrichment [14],phosphorylation enrichment [15],phosphorylation enrichment [16]
GLIPAYHRVIV [NMNAT1_Y64_M69V],1.26,0.987,0.957,0.622,0.933,0.371,0.44,0.804,0.458,0.515,0.453,0.639,1.15,0.627,0.437,0.481
GLRQSYFVEAQ [APCS_Y142_G141S],0.681,0.686,0.726,0.48,0.825,0.453,0.378,0.717,0.457,0.532,0.491,0.697,0.596,0.612,0.543,0.505
GNLLIYTKFGK [HGD_Y166_E168K],0.571,0.666,0.755,1.5,1.28,2.02,0.532,1.31,1.46,0.921,0.666,0.788,1.26,0.572,0.991,1.36
GPIFRYDLGGA [CYP11B1_Y81],0.518,0.97,0.859,0.497,0.822,0.394,0.466,0.777,0.45,0.478,0.431,0.433,0.568,0.432,0.345,0.357
GPKFVYDEIDN [ACOX1_Y232_G231V],24.5,0.709,0.653,0.652,1.04,0.514,0.409,1.1,0.537,0.505,0.556,0.57,0.92,0.482,0.413,0.467
GQRDLYSGLNE [CD3E_Y199_Q204E],0.724,0.878,0.64,0.566,0.89,5.28,1.94,1.23,4.4,1.12,1.3,0.653,0.716,0.555,2.58,9.08
GRSTYYWPSPR [GAGE12J_Y10_R13S],0.898,1.12,0.923,6.32,0.796,7.28,1.44,1.78,6.75,10.5,11.1,5.22,7.45,7.32,17,7.41
GVCKNYAEAKD [ALB_Y343_D338G],0.825,0.886,0.705,0.6,0.729,0.392,0.359,0.749,0.371,0.469,0.511,0.585,0.556,0.551,0.385,0.498
GVLDIYGFDIL [MYO1A_Y382_E385D],0.427,0.839,0.784,0.69,1.07,2.69,0.524,0.978,3.78,0.67,0.566,0.621,0.955,0.448,0.465,2.12
GVLKEYGGKVL [CPS1_Y529_V531G],0.29,0.963,0.559,0.546,0.686,0.396,0.354,0.588,0.364,0.393,0.343,0.415,0.537,0.361,0.374,0.403
GVMLLYFGRFN [ADGRD1_Y85_T82M_YF],0.746,0.956,1.25,0.65,1.26,0.343,0.508,1.4,0.441,0.529,0.528,0.705,1.15,0.53,0.393,0.531

# More lines, main results first:
SH2 binding enrichment [1],SH2 binding enrichment [2],SH2 binding enrichment [3],Sequence,phosphorylation enrichment [4],phosphorylation enrichment [5],phosphorylation enrichment [6],phosphorylation enrichment [7],phosphorylation enrichment [8],phosphorylation enrichment [9],phosphorylation enrichment [10],phosphorylation enrichment [11],phosphorylation enrichment [12],phosphorylation enrichment [13],phosphorylation enrichment [14],phosphorylation enrichment [15],phosphorylation enrichment [16]
0.42,0.876,0.572,GLSSAYGGLTS [KRT8_Y427],0.543,0.584,0.469,0.422,0.516,0.513,0.555,0.347,0.449,0.506,0.351,0.341,0.545
0.598,0.99,0.998,GRMLQYLTVND [PPFIBP2_Y663_R658G],0.593,0.97,0.436,0.42,0.792,0.401,0.52,0.477,0.575,0.811,0.51,0.319,0.489
0.525,1.07,0.771,GTATAYLCRVK [ALPL_Y117_G120R],0.595,0.804,0.399,0.517,0.678,0.404,0.48,0.506,0.514,0.578,0.471,0.363,0.389
0.662,0.89,0.693,GTPVMYTFDEF [COL10A1_Y623_YF],0.767,1.16,0.668,0.473,1.03,0.733,0.621,0.611,0.806,1.16,0.504,1.03,0.474
0.533,1.1,0.782,GTYVIYVRFGG [FLNB_Y1687],0.868,1.32,0.752,0.516,1.22,0.62,0.604,0.696,0.736,1.04,0.511,0.498,0.597
0.807,1.13,1.04,GVTLLYYGRDN [ADGRD1_Y85_Y89D],0.894,1.01,0.816,0.408,0.923,0.545,0.605,0.629,0.685,1.39,0.543,0.841,1.01
